assay: soluble on expression in E. coli; label from the status in PepcDB or PDB records

Sequence | soluble on expression in E. coli
MSDSIQERYLVGYALAAKKQHSFIQPSLIEHSRQRGIDLVKLDPTKSLLEQGKLDCIIHKLYDVYWKENLHEFREKCPGVPVIDLPEAIERLHNRVSMLEVITQLRFPVSDSERFGVPEQVVVMDSSVLSGGGALGELKFPVIAKPLDADGSAKSHKMFLIYDQEGMKILKAPIVLQEFVNHGGVIFKVYVVGDHVKCVKRRSLPDISEEKIGTSKGSLPFSQISNLTAQEDKNIEYGEDRSLEKVEMPPLSFLTDLAKAMRESMGLNLFNFDVIRDAKDANRYLIIDINYFPGYAKMPSYEPVLTEFFWDMVTKKNHV | soluble
MSDSVSDAQAQSTPEGAQQKPILRVVKGNPDPTQVATLTALFASMADNAAQQSKQERERNLWGNVEERLQRPTTYNPTAFRNVSFF | not soluble
MSDVEKKSETQEAAPKKKPYNLREKKEKKAAYRSLIRAELADELYDKILNIVVVQKKYKDPNYSAKDLAKELKTNTRYLSAVVNSRFGMNYSCLLNEYRIKDALHLLVDKRYMDKNVEEISAMVGFANRQSFYAAFYKNVGETPNGYRKRNQEKK | not soluble
MSDVKSVIESGRAVLGIEFGSTRIKAVLIGEDHAPIATGAHDWENMLVDGIWTYSLDMIWEGISDCYSKMAQDAKEKYGVTIKKLAAIGISGMMHGYLPFDEEDNLLVPFRTWRNTITGEAAAELTEVLGFNIPQRWSIAHLYQAILNKEEHVSKISYFTTLAGYIHWQLTGEKVMGVGEASGMFPIDSKTRDYDAAMLDKFAALDKVKEYPWDIRDILPKVLTAGEKAGTLTEEGAKRLDVSGNLESGILLAPPEGDAGTGMVATNSVAVRTGNVSAGTSVFAMVVLEKALKAVHEELDMVTTPSGDAVAMVHCNNCTSDLNAWVGLFKEFSELFGMDIDMNDIYGKLYNNALTADKDCGGLVAFNLFSGEPVIGLNEGRPMFARKPDARMNLANFMRTHLYASLATLKIGCDILFKEEKVKVDTLYGHGGLFKTKGVGQSILAAAMDAPVAVMETAGEGGPWGMAVLAAYMVNKADGEPLEKYLSDRVFNGEKGIVMQPDPDDVKGFDEYINTYKAAIEAERAMVKALPLLEHHHHHH | soluble
MSEAVKLDVGGTIFKTSKSTLTKFDGFFRTMLGSGIGLNVDESGCIFIDRSPKHFDLILNFMRDGCLALPKNERDLTELMAEAQYYLLDGLIDRLASSNWSVESDEKTINVAKRLPILENNSQFLQVLCNQEKPILLIVVMASRDHFFPNMSIPDGFNAYKFVEKYSHQFHIYFMSTFVAQFLTIRVKRNNKIVYLKRAAYVSSGQQE | not soluble
MSEDNFDDEFDGSLPSGPRHPMARRFRGYLPVVVDVETGGFNSATDALLEIAATTVGMDEKGFLFPEHTYFFRIEPFEGANIEPAALEFTGIKLDHPLRMAVQEEAALTEIFRGIRKALKANGCKRAILVGHNSSFDLGFLNAAVARTGIKRNPFHPFSSFDTATLAGLAYGQTVLAKACQAAGMEFDNREAHSARYDTEKTAELFCGIVNRWKEMGGWMDDDD | soluble
MSELIKHSSNFLAAISPDNDCSITATNDFEAMMSWLNGYKKKPINTSRNYAREVKRYLIWLSCQGLTLAQVKIEDVYEYFNLLERPTTEWIIPDKKTDKIYPTQLIKYGGLSNRSINYTHTVLGLFYSFLQDAGYLTKNPINLVKKALEHHHHHH | not soluble
MSENMVNLPDSLYEDYSKLKLTSPSNASSSSSAPPPRLSVVAHPTVEMIIQWVCDIHKPKSYMSDFALHNLAYHRNDFEFLPSLLWESKNTVYIMLQEVFEAYRHLAGHISLRLFPHPLNPLRVYNVFLLFQSMACHPDTSRQFLRAKMPNYFYPLMDTGLIDKSDECMRLAALGVIAHMLKASEDGAVNRYLMESGVVGFCVKPIEFGSTETKKVALYILDKIMSTDQGLYYCCVLADRFYVIDELLKKVLFYLSNMVRPPSSLFSLVTGCYVKLSQNSRARNGIRRYTPFLLFDGTFSRLYAEDPVAANNRIQLLQNLDN | soluble
MSENSNQFLDALKQMQGVEVGDIVDVEVLDVEDGQIDVGVENAGVEGVITRREYTSDRNADLRDLVKPGDKFKALVLRRAGGDKENGEFFFSVTRLKEREAFDKLQKDFEEGNAIEGTVTSSVRGGLLVDVGTRGFLPASLISNRYVSDLKPYIGKTMKLKITEIDPNKNRLILSHKDLVEEEREEAFDKVASQLVVGDVVEGKVSRLTNFGSFIDVGGVDGLVHISEISYKHVDKPSDVLKVGQDVKVKVIGIDNDRHRISLSIKQTEPSPFEQATADLNEGDIFEGEVKSLTNFGAFVEVADGIQGLVHVSEISNKHVDKPSDVLKVGQTVKVKVLNIDPNDRRISLSIKAADSNSSSSDNHNSRPRRSRNENTVNKKYMSDNDNGFALGDIIGDQLKDRKLEHHHHHH | soluble
MSEPLLEVKNLKTYFPIKGGIFSRTVGHVKAVDGVSFTIKKGEVFGLVGESGSGKTTIGKTILRLVQKTEGEVKFKGHDVHSLSKEELRKHRPNMQLVFQDPFSSLNPRMRIGEALGEPMLAHGLATKENVREKVTEVLELCGLAPYHIDRYPHEFSGGQRQRIVIARAMVLNPEFIVADEPVAALDVSIQAQIINLFSELQEKKGLSYLFISHDLSVVEHLCTKIGIMYLGTIVETAPRDELFTNPLHPYTKALLSAVPIPDPTVKRERIILEGDIPSPANPPSGCCFHTRCPFATDICKQTGNSVMLVKSTLLLVIMYKREGLFQKLKESFFIY | not soluble
MSEQKTIRFIITRQDTADSTPYDEEFEIPYRPNLNVISALMEIRRNPVNVKGEKTTPVTWDMNCLEEVCGACSMVINGKPRQSCTALIDQLEQPIRLKPMKTFPVVRDLQVDRSRMFDSLKKVKAWIPIDGTYDLGPGPRMPEKRRQWAYELSKCMTCGVCLEACPNVNSKSKFMGPAPMSQVRLFNAHPTGAMNKSERLEALMDEGGLADCGNSQNCVQSCPKGIPLTTSIAALNRDTNLQAFRNFFGSDRV | not soluble
MSEQLNADRPKTRRKEPAGRGSASEQKILAAAKELFLADRYDGVNLERIAARAGVSRQTVYNRFGSKETVFREMVRHHWSAFAGPGRDIAECGPDASAEEVLRGFAQSLQRFATETDQIRFAQLVVTESARLPWIADEFYRLGKGPVVVTFADCLDSLVRRGLLRCPDTHLAARQFTGLVQEFLVWPRVMAFEEEVAGQAPPEVVIEEAVLTFLARYAPAADGPGQSV | not soluble
MSEQQPNLRERRRSETRRLVQAHAVRLFTDHGYDAVTVADVAEAAGVSAMTVYRHFPTKEDLVLIDQPAQLIAEHVAASSAAQPLVRRVGSALIDAATNWTGGNGDEQAANERFLLDCLRLMVSTPALRARHLDSQYALQQAIVDALGDDATGPDAAFRAQAATSACIAAMHTALTRWVEDDGHTKLPDLIARALTASFGDDAVATRRKG | not soluble
MSEQVYSGVDQDEDGGLTPLGRIVIDAWVFGILPESEMCTGWSMSQMQNLYEEVYAAWGPYAHLPSRLPPELQQRHSFFYSQRITVAKNNGWDTDLSDES | not soluble
MSERPVHEYIKELSEALVQLSDKVLQNFNEALYAVTHKDVQSARKIRIVDDEIDQTEVKLEERCLAFLALQQPVARDLRTMVTIIKINDDLERIGDLAVHIIERMPALGHEVMERYQFEKMGNLSATMVRKAIEAFVTRDRLLADNVCAMDEDVDAMHRMIFKKVADAMKACNTDTEQLLAVLSVSRYIERMADHATRIAREVIYLVTGEIVRHSDDTFEKLIQSLKD | soluble
MSERQSKYFDYQGIVISSTGQDNQDSETDLVYLIQAHGKAAPKNIMYGVSKCAFVPTNLERNFDNIEEAKNLERRSKIPLKFGEVILWNESDCDHDKRIILHIKREKPIYEASSSRNGLILKVGGVIQPTSTTSFWTPLCTVTMPETEATRAEPDVWLYAWIRFETTMKSGLDPFNMTATFESFDSCDPSDQARVCEAPWNAGSPDSKFGVWRPDPKPADSDDEIDIEPREGWHLPEDKWAEVIKMQLGLYVGERLLICKELSQFDFIIPLQKPFSRGTDKTLIYPAVGEYFHFSAIWSMQHNGFLIYELQPVPLLRQHVTSVNGNLLTRVVPASIRGLFVDKEGTLGLIDDPHHLLSFFEFHPAGYEFLKAMAEVRAVRTSENKSVRYRIVRTSGMSIFENWLRDTQFVVGPVKGIRINEDTVICAKHPNVYFKIPNNLKEGIPIGGGVQFVGKRQAGVDSEIMITECSPCPAFTCKNYSVSGDTRLFQVYLKPNCDHEQLAESDSMGFVDFRELETPCRGKFLAWVRESITVNDCRRAATIMEVCSTAICPPLIAMSANSSRATSARTTPAGSSIGSRSSIQSRASAATSVSSNRFVGPSSRRTPSGTPQSSTSSRV | not soluble
MSESSEWLIYRGAGEPHDGVDRLPDPPPWRDFTSRDAAGSGDGSEDRRLGAHRHLAELHRPGAEELEMINAALYLRRPLLVTGSPGAGKSTLAHSVAYELGLGNVLRWSIVSRSELQDGLYHYDAIARLQDVQIAAQADNGPGSGTPGAVDGIGGYIRLGPLGTALLPSDKPRVLLIDELDKSDIDLPNDLLNVLEEGEFAIPELERVADRLPDRTAEVLTADGVKVPVRDGRVRCRAFPFVVLTSNGERDFPAPLMRRCIHLELGRPDHNRLATFVRAHLGDEAARAGDDLVTRFLERSRSELLATDQLLNAIYLTDAAATPSRDRLADLLIQRLDRPRLEHHHHHH | soluble
MSEVNIVVNGREAGSKSKGCALCGATWGDYHADFLGEDLFFCCDICAAEFMNMMDEAFKHTARHNVDELHIDGNYQLGRNVLLKNGEDRLRFYVKFGPGAVIKEFKITD | soluble
MSEWASEDINAPSLLTGNPALQPQTGGILNIPANHQRIFTLFFTCRSQTNGDVVDQYAVEDRQQRLESRLLALKPSAQRNKQMCGECLGGVILTALFDPRSQAM | not soluble
MSFAPMLLATINNSIGNKDKHVSLEYLIGLFMDKKTTNLSNTDKYIIGTIQTEALEQEIEWFSQDYHIPMENILHVLSINPYQ | not soluble
MSFFEQYRTGNLVLPNALFFHFKDIFPSADDFLVWQFLYLQTTTQIGEVASSQIAQATGKTPTEVNKSITTLTEAGLLDFTTVKVNNEIKMVVDASPALAVLDKLVSSENSTTGPVAGQPTNTQLIKQLTDELEQALGILNPMVIEDLNKEIQEEHTDPELIREALKEAVFNRKTNWNYIKGVLRNWKLSGITTKIQVEERRLEHQGKKQHHQVSDEFKTGMDAARQLWGGQ | not soluble
MSFGLVGTVNNNGWKSPFRHETKYRAGYDKFKYYKTHYRGAKKAGTNDDRWRWTAWFDLDFAHQKIVLIERGELHRQADLKKSDPATNETSKTVWGSIKEKLLQNVNNLHSEKGVFLWFRQSGFTTTRN | soluble
MSFKDLRSFIDHLEANGELKRISYPVDPHLEMTEIADRVLRAQGPALLFENPTNHSMPVLANLFGTPKRVAMALGKDDPLALREVGELLAFLKEPEPPRGFKDAISKIPMFKQALNMPPKTVRNPACQQVVKTGDDVDLTQLPIQHCWPGDVAPLVTWGLTITKGPRKSRQNLGIYRQQLLGKNKLIMRWLSHRGGALDFADFKEQFPGERYPVVVALGSDPVTILGAVTPVPDAMSEYAFAGLLRGERTEVCKALSCDLEVPASSEIILEGYIDPNEMAEEGPYGDHTGYYNETDKFPVFTVTHITHRKDPIYHSTYTGRPPDEPAMLGVALNEVFVPILRKQYPEIIDFYLPPEGCSYRMAVISIRKQYPGHAKRVMMGAWSFLRQFMYTKFIVVVDDDVNCRDWNDVIWAITTRMDPKRDTVMIDNTPIDYLDFASPVVGLGSKMGLDATNKWEGETNREWGTPIVMDPKVKQKIDSIWDELGIS | soluble
MSFSENRRIALVTLVVDNYDRAKAFYCDVLGFECLSDKPLDDGKRWVVVKPQGAEGGALLLAEADGEQQRLAIGNQTGGRVGFFLHTDDFARDYETMIARGVHFLEEPRHEVYGSVAVFADPYGNRWDLLQPRG | not soluble

Source: the DeepSol protein solubility set
